According to publication PMC6277545, “Structural Basis for the Limited Response to Oxidative and Thiol-Conjugating Agents by Triosephosphate Isomerase From the Photosynthetic Bacteria Synechocystis” (Frontiers in Molecular Biosciences, 2018):

substrate: O=CC(O)COP(=O)(O)O; test: coupled alpha-glycerophosphate dehydrogenase assay, A340; type: biochemical, Synechocystis sp. PCC 6803; conditions: 0.1 M TEA pH 7.4, 10 mM EDTA, 0.2 mM NADH, G3P 0-5 mM, G3P to DHAP
Text: coupled alpha-glycerophosphate dehydrogenase assay, A340 on SyTPI

Protein | Km [µM] | kcat [s⁻¹] | kcat/Km [M⁻¹ s⁻¹]
SyTPI (Synechocystis sp. PCC 6803 substr. Kazusa; C127A/C176S/C42A) (protein, full length, codon-optimised, E. coli BL21(DE3) delta-tpi; His tag cut by PreScission, extra Gly-Pro-His before Met1; homodimer 54 kDa) MRKIIIAGNWKMHKTQAEAQAFLQGFKPLIEDAAESREVVLAVPFTDLSGMSQQLHGGRVRLGAQNVHWEASGAYTGEISAAMLTEIGIHYVVIGHSERRQYFGETDETANLRVLAAQKAGLIPILAVGESKAQRDAGETEQVIVDQVKKGLVNVDQSNLVIAYEPIWAIGTGDTSAATEANRVIGLIREQLTNSQVTIQYGGSVNANNVDEIMAQPEIDGALVGGASLEPQSFARIVNFQP | 1400 ± 150 | 21.3 ± 1 | 15200
SyTPI (Synechocystis sp. PCC 6803 substr. Kazusa; C127A/C176S) (protein, full length, codon-optimised, E. coli BL21(DE3) delta-tpi; His tag cut by PreScission, extra Gly-Pro-His before Met1; homodimer 54 kDa) MRKIIIAGNWKMHKTQAEAQAFLQGFKPLIEDAAESREVVLCVPFTDLSGMSQQLHGGRVRLGAQNVHWEASGAYTGEISAAMLTEIGIHYVVIGHSERRQYFGETDETANLRVLAAQKAGLIPILAVGESKAQRDAGETEQVIVDQVKKGLVNVDQSNLVIAYEPIWAIGTGDTSAATEANRVIGLIREQLTNSQVTIQYGGSVNANNVDEIMAQPEIDGALVGGASLEPQSFARIVNFQP | 1190 ± 80 | 683 ± 6 | 573000
SyTPI (Synechocystis sp. PCC 6803 substr. Kazusa; C127A) (protein, full length, codon-optimised, E. coli BL21(DE3) delta-tpi; His tag cut by PreScission, extra Gly-Pro-His before Met1; homodimer 54 kDa) MRKIIIAGNWKMHKTQAEAQAFLQGFKPLIEDAAESREVVLCVPFTDLSGMSQQLHGGRVRLGAQNVHWEASGAYTGEISAAMLTEIGIHYVVIGHSERRQYFGETDETANLRVLAAQKAGLIPILAVGESKAQRDAGETEQVIVDQVKKGLVNVDQSNLVIAYEPIWAIGTGDTCAATEANRVIGLIREQLTNSQVTIQYGGSVNANNVDEIMAQPEIDGALVGGASLEPQSFARIVNFQP | 1040 ± 80 | 1770 ± 56 | 1.71e+06
SyTPI (Synechocystis sp. PCC 6803 substr. Kazusa; C176S/C42A) (protein, full length, codon-optimised, E. coli BL21(DE3) delta-tpi; His tag cut by PreScission, extra Gly-Pro-His before Met1; homodimer 54 kDa) MRKIIIAGNWKMHKTQAEAQAFLQGFKPLIEDAAESREVVLAVPFTDLSGMSQQLHGGRVRLGAQNVHWEASGAYTGEISAAMLTEIGIHYVVIGHSERRQYFGETDETANLRVLAAQKAGLIPILCVGESKAQRDAGETEQVIVDQVKKGLVNVDQSNLVIAYEPIWAIGTGDTSAATEANRVIGLIREQLTNSQVTIQYGGSVNANNVDEIMAQPEIDGALVGGASLEPQSFARIVNFQP | 1460 ± 20 | 2130 ± 62 | 1.46e+06
SyTPI (Synechocystis sp. PCC 6803 substr. Kazusa) (protein, full length, codon-optimised, E. coli BL21(DE3) delta-tpi; His tag cut by PreScission, extra Gly-Pro-His before Met1; homodimer 54 kDa) MRKIIIAGNWKMHKTQAEAQAFLQGFKPLIEDAAESREVVLCVPFTDLSGMSQQLHGGRVRLGAQNVHWEASGAYTGEISAAMLTEIGIHYVVIGHSERRQYFGETDETANLRVLAAQKAGLIPILCVGESKAQRDAGETEQVIVDQVKKGLVNVDQSNLVIAYEPIWAIGTGDTCAATEANRVIGLIREQLTNSQVTIQYGGSVNANNVDEIMAQPEIDGALVGGASLEPQSFARIVNFQP | 800 ± 20 | 1850 ± 43 | 2.31e+06
SyTPI (Synechocystis sp. PCC 6803 substr. Kazusa; C127A/C42A) (protein, full length, codon-optimised, E. coli BL21(DE3) delta-tpi; His tag cut by PreScission, extra Gly-Pro-His before Met1; homodimer 54 kDa) MRKIIIAGNWKMHKTQAEAQAFLQGFKPLIEDAAESREVVLAVPFTDLSGMSQQLHGGRVRLGAQNVHWEASGAYTGEISAAMLTEIGIHYVVIGHSERRQYFGETDETANLRVLAAQKAGLIPILAVGESKAQRDAGETEQVIVDQVKKGLVNVDQSNLVIAYEPIWAIGTGDTCAATEANRVIGLIREQLTNSQVTIQYGGSVNANNVDEIMAQPEIDGALVGGASLEPQSFARIVNFQP | 1100 ± 30 | 1630 ± 53 | 1.48e+06
SyTPI (Synechocystis sp. PCC 6803 substr. Kazusa; C42A) (protein, full length, codon-optimised, E. coli BL21(DE3) delta-tpi; His tag cut by PreScission, extra Gly-Pro-His before Met1; homodimer 54 kDa) MRKIIIAGNWKMHKTQAEAQAFLQGFKPLIEDAAESREVVLAVPFTDLSGMSQQLHGGRVRLGAQNVHWEASGAYTGEISAAMLTEIGIHYVVIGHSERRQYFGETDETANLRVLAAQKAGLIPILCVGESKAQRDAGETEQVIVDQVKKGLVNVDQSNLVIAYEPIWAIGTGDTCAATEANRVIGLIREQLTNSQVTIQYGGSVNANNVDEIMAQPEIDGALVGGASLEPQSFARIVNFQP | 1010 ± 30 | 1780 ± 42 | 1.76e+06
